Assay [1] concerns the target T1, human LOX1 on cells (human LOX1 transfected CHO TREX cells) (human, UniProt P78380 1-273).
T1 construct: whole, on cells; also called hLOX1 transfected cells; hLOX1 CHO
In words: competition with DyLight 649 AGE-BSA on human LOX1 CHO TREX cells, FMAT.

Assay [2] has as its target T2, human LOX1 SNP K167N variant on cells (K167N SNP transfected CHO TREX cells) (human, UniProt P78380 1-273).
T2 construct: whole, on cells; also called hLOX1 K167N; K167N hLOX1 CHO
The assay is described as follows: competition with DyLight 649 oxLDL on human LOX1 K167N CHO TREX cells, FMAT.

Assay [3] concerns the target T1, human LOX1 on cells (human LOX1 …). In words: competition with DyLight 649 oxLDL on human LOX1 CHO TREX cells, FMAT.
For another assay, the target named is T3, Human CLEC-1A (human, UniProt Q8NC01 74-280, limits assumed).
T3 construct: Bought protein; also called C-type lectin domain family 1 member A
T3 sequence (looked up): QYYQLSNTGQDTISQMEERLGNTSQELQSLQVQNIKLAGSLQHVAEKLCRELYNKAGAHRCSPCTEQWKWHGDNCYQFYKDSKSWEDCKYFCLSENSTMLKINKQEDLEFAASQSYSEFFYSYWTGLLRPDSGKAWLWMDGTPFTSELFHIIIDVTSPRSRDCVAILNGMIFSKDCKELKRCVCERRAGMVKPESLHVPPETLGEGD
In words: IgG binding ELISA on coated antigen, absorbance at 450 nm.

The target in another assay is T4, Human SR-A1 (MSR) (human, UniProt P21757 77-451).
T4 construct: Bought protein; also called Macrophage scavenger receptor types I and II
T4 sequence (looked up): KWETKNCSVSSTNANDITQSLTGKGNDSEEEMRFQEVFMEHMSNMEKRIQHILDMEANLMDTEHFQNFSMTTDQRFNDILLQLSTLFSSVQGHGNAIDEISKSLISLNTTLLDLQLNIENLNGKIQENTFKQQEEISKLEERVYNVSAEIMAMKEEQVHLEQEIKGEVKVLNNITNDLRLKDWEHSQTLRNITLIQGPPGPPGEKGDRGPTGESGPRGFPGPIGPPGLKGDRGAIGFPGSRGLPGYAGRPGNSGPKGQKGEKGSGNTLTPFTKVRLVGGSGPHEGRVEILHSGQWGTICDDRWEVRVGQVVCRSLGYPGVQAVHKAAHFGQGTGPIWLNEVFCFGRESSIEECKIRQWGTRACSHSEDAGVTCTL
The assay is described as above.

A further assay addresses T5, Human CLEC-4L (DC-SIGN) (human, UniProt Q9NNX6 62-404).
T5 construct: Bought protein; also called C-type lectin domain family 4 member L
T5 sequence (looked up): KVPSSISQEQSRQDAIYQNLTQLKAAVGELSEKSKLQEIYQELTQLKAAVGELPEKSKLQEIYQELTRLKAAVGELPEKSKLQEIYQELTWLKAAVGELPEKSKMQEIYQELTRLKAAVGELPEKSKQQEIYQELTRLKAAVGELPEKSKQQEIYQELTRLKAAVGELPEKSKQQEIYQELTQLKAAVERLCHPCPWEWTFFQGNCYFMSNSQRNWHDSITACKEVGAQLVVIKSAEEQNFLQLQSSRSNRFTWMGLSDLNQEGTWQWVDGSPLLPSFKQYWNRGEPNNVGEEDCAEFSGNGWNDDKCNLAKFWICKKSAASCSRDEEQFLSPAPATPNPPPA
Described as above.

The target in the next assay is T6, Human CLEC-7A (Dectin-1) (human, UniProt Q9BXN2-2 66-201, limits assumed).
T6 construct: Bought protein; also called C-type lectin domain family 7 member A
T6 sequence (looked up): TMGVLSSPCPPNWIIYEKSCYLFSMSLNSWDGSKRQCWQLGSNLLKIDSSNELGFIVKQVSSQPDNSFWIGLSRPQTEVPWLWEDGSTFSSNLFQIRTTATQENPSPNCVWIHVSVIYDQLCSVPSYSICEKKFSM
Described as above.

A further assay concerns the target T7, Human SR-B3 (CD36) (human, UniProt P16671 30-439).
T7 construct: Bought protein; also called Platelet glycoprotein 4
Described as above.

The next assay concerns the target T8, Human CLEC-1B (CLEC-2) (human, UniProt Q9P126 58-229, limits assumed).
T8 construct: Bought protein; also called C-type lectin domain family 1 member B
The assay is described as above.

The target of assay [4] is T9, recombinant human LOX1 (R&D Systems) (human, UniProt P78380 61-273). In words: competition with biotin CRP on plate-bound recombinant human LOX1, DELFIA.
The target of assay [5] is T2, human LOX1 SNP K167N variant on cells …. The assay is described as follows: competition with DyLight 649 oxLDL on K167N hLOX1 CHO TREX cells (FMAT); row label not given, assay assigned by block order of Table 5.
Assay [6] concerns the target T9, recombinant human LOX1 (R&D Systems). In words: competition with biotin CRP on immobilised recombinant hLOX1 (DELFIA); row label not given, assay assigned by block order of Table 5.
Assay [7] concerns the target T1, human LOX1 on cells (human LOX1 …). In words: competition with DyLight 649 AGE-BSA on hLOX1 CHO TREX cells (FMAT); row label not given, assay assigned by block order of Table 5.
The target is the same in assay [8]. In words: competition with DyLight 649 oxLDL on hLOX1 CHO TREX cells (FMAT); row label not given, assay assigned by block order of Table 5; first Mean/SD/n block of Table 2 (oxLDL/hLOX1 competition), n = 8.
Assay [9] has the same target. The assay is described as follows: cell-based or functional assay.
Assay [10] has the same target. In words: saturation binding of DyLight 649 labelled antibody on hLOX1 CHO TREX cells (FMAT).

T7 sequence (P16671 30-439 limits assumed): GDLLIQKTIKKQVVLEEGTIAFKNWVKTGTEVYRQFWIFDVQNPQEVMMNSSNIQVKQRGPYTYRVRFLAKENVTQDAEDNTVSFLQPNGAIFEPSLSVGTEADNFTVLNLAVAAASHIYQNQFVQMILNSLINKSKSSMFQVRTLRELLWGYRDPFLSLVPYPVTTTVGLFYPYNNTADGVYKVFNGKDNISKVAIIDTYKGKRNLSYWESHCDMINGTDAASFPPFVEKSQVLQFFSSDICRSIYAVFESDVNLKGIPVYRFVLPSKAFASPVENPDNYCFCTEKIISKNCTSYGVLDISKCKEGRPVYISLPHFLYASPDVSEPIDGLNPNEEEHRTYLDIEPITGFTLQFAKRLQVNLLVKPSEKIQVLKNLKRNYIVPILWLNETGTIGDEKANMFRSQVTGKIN
T8 sequence (Q9P126 58-229 limits assumed): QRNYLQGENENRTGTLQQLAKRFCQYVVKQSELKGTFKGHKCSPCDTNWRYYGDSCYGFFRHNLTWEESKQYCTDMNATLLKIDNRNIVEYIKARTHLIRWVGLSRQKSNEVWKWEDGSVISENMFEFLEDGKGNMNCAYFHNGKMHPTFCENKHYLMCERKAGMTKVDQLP

B1: LOX696 IgG1-TM (antibody, V domains shown)
VH: QVQLVQSGGGLVQPGRSLRLSCAASGFTFDDYAMHWVRQAPGKGLEWVSGISWNSGSIGYADSVKGRFTISRDNAKNSLYLQMNSLRAEDTAVYYCAREGNWNYDAFDIWGRGTTVTVSS
VL: QSALTQPASVSGSPGQSITISCTGTSSDVGGYNYVSWYQQHPGKAPKLMIYDVSNRPSGVSNRFSGSKSGNTASLTISGLQAEDEADYYCSSYTSSSTNWVFGGGTKLTVL
notes: Whole human IgG1-TM (L234F/L235E/P331S); Labelled with DyLight 649 in Assay 7; also called LOX10696-IgG1-TM; LOX10696 IgG1-TM
One may read the IC50 as the midpoint of a concentration-inhibition curve. The Kd is the constant that tells how readily two partners part at equilibrium. Regarding B1, the “IC50 (read off the curve)” value in [1] was about 0.01 nM; in [2], about 0.4 nM; in [3], about 0.3 nM; in [4] it was about 2 nM. For the same molecule, the binding result in the assay with Human CLEC-1A, in the assay with Human SR-A1 (MSR), with Human CLEC-4L (DC-SIGN), with Human CLEC-7A (Dectin-1), in the assay with Human SR-B3 (CD36) and with Human CLEC-1B (CLEC-2) was “no binding (tested: 0.2 µg/mL (single concentration))” in each case. Besides, the IC50 is 0.246 nM in assay [5], 4.69 nM in [6], 0.0873 nM in assay [7] and 0.131 nM in [8]. Further, the “IC50 of inhibition of Cypher 5E oxLDL internalization in hLOX1 CHO TREX cells (row label not given; assay assigned by block order of Table 5)” value in assay [9] was 0.35 nM. Besides, the “IC50 of inhibition of oxLDL-dependent ROS generation in hLOX1 CHO TREX cells (row label not given; assay assigned by block order of Table 5)” value in assay [9] amounted to 6.22 nM. In assay [10], this molecule had a Kd of 3.3 nM.
